Patent US20120058116A1 (published 2012)

Target: GLP-1 receptor on CHO 6CRE GLP1R cells
Assay: cell-based or functional assay

Row | Binder | Average EC50 (pM), luciferase reporter in CHO 6CRE GLP1R cells [pM]
1 | Ex4-ScrL (antibody, mouse IgG2a) heavy: QVQLVQSGSELKKPGASVKVSCKASGYTFTNYGMNWVRQAPGQGLEWMGWINTRNGKSTYVDDFKGRFVFSLDTSVSTAYLQISSLKADDTAVYYCAREGNMDGYFPFTYWGQGTLVTVSSAKTTAPSVYPLAPVCGDTTGSSVTLGCLVKGYFPEPVTLTWNSGSLSSGVHTFPAVLQSDLYTLSSSVTVTSSTWPSQSITCNVAHPASSTKVDKKIEPRGPTIKPCPPCKCPAPNLAGAPSVFIFPPKIKDVLMISLSPIVTCVVVDVSEDDPDVQISWFVNNVEVHTAQTQTHREDYNSTLRVVSALPIQHQDWMSGKEFKCKVNNKDLPAPIERTISKPKGSVRAPQVYVLPPPEEEMTKKQVTLTCMVTDFMPEDIYVEWTNNGKTELNYKNTEPVLDSDGSYFMYSKLRVEKKNWVERNSYSCSVVHEGLHNHHTTKSFSRTPGK light: not shown | 117
2 | Ex4-ScrH (antibody, mouse IgG2a, kappa) heavy: not shown light: DIVMTQSPSSLSASVGDRVTITCKASQNVGTNVAWYQQKPGKAPKALIYSASYRYSGVPDRFSGSGSGTDFTLTISSLQPEDFATYYCQQYNSYPLTFGGGTKVEIKRTDAAPTVSIFPPSSEQLTSGGASVVCFLNNFYPKDINVKWKIDGSERQNGVLNSWTDQDSKDSTYSMSSTLTLTKDEYERHNSYTCEATHKTSTSPIVKSFNRNEC | 153
3 | GLP-1ScrL (antibody, mouse IgG2a) heavy: QVQLVQSGSELKKPGASVKVSCKASGYTFTNYGMNWVRQAPGQGLEWMGWINTRNGKSTYVDDFKGRFVFSLDTSVSTAYLQISSLKADDTAVYYCAREGNMDGYFPFTYWGQGTLVTVSSAKTTAPSVYPLAPVCGDTTGSSVTLGCLVKGYFPEPVTLTWNSGSLSSGVHTFPAVLQSDLYTLSSSVTVTSSTWPSQSITCNVAHPASSTKVDKKIEPRGPTIKPCPPCKCPAPNLAGAPSVFIFPPKIKDVLMISLSPIVTCVVVDVSEDDPDVQISWFVNNVEVHTAQTQTHREDYNSTLRVVSALPIQHQDWMSGKEFKCKVNNKDLPAPIERTISKPKGSVRAPQVYVLPPPEEEMTKKQVTLTCMVTDFMPEDIYVEWTNNGKTELNYKNTEPVLDSDGSYFMYSKLRVEKKNWVERNSYSCSVVHEGLHNHHTTKSFSRTPGK light: HGEGTFTSDVSSYLEGQAAKEFIAWLVKGRGSGGGGSGGGGSGDIVMTQSPSSLSASVGDRVTITCKASQNVGTNVAWYQQKPGKAPKALIYSASYRYSGVPDRFSGSGSGTDFTLTISSLQPEDFATYYCQQYNSYPLTFGGGTKVEIKRTVAAPTVSIFPPSSEQLTSGGASVVCFLNNFYPKDINVKWKIDGSERQNGVLNSWTDQDSKDSTYSMSSTLTLTKDEYERHNSYTCEATHKTSTSPIVKSFNRNEC | 889
4 | GLP-1ScrH (antibody, mouse IgG2a, kappa) heavy: HGEGTFTSDVSSYLEGQAAKEFIAWLVKGRGSGGGGSGGGGSGQVQLVQSGSELKKPGASVKVSCKASGYTFTNYGMNWVRQAPGQGLEWMGWINTRNGKSTYVDDFKGRFVFSLDTSVSTAYLQISSLKADDTAVYYCAREGNMDGYFPFTYWGQGTLVTVSSAKTTAPSVYPLAPVCGDTTGSSVTLGCLVKGYFPEPVTLTWNSGSLSSGVHTFPAVLQSDLYTLSSSVTVTSSTWPSQSITCNVAHPASSTKVDKKIEPRGPTIKPCPPCKCPAPNLAGAPSVFIFPPKIKDVLMISLSPIVTCVVVDVSEDDPDVQISWFVNNVEVHTAQTQTHREDYNSTLRVVSALPIQHQDWMSGKEFKCKVNNKDLPAPIERTISKPKGSVRAPQVYVLPPPEEEMTKKQVTLTCMVTDFMPEDIYVEWTNNGKTELNYKNTEPVLDSDGSYFMYSKLRVEKKNWVERNSYSCSVVHEGLHNHHTTKSFSRTPGK light: DIVMTQSPSSLSASVGDRVTITCKASQNVGTNVAWYQQKPGKAPKALIYSASYRYSGVPDRFSGSGSGTDFTLTISSLQPEDFATYYCQQYNSYPLTFGGGTKVEIKRTDAAPTVSIFPPSSEQLTSGGASVVCFLNNFYPKDINVKWKIDGSERQNGVLNSWTDQDSKDSTYSMSSTLTLTKDEYERHNSYTCEATHKTSTSPIVKSFNRNEC | 485
5 | Ex4-FGFR1cA1L (antibody, mouse IgG2a) heavy: QVQLVQSGAEVKKPGSSVKVSCKASGQTFTGYYMHWVRQAPGQGLEWMGRIIPILGIAQKFQGRVTITADKSTSTAYMELSSLRSEDTAVYYCARGGDLGGMDVWGQGTLVTVSSAKTTAPSVYPLAPVCGDTTGSSVTLGCLVKGYFPEPVTLTWNSGSLSSGVHTFPAVLQSDLYTLSSSVTVTSSTWPSQSITCNVAHPASSTKVDKKIEPRGPTIKPCPPCKCPAPNLAGAPSVFIFPPKIKDVLMISLSPIVTCVVVDVSEDDPDVQISWFVNNVEVHTAQTQTHREDYNSTLRVVSALPIQHQDWMSGKEFKCKVNNKDLPAPIERTISKPKGSVRAPQVYVLPPPEEEMTKKQVTLTCMVTDFMPEDIYVEWTNNGKTELNYKNTEPVLDSDGSYFMYSKLRVEKKNWVERNSYSCSVVHEGLHNHHTTKSFSRTPGK light: not shown | 109
6 | Ex4-FGFR1cA1H (antibody, mouse IgG2a) heavy: not shown light: EIVLTQSPLSLPVTPGEPASISCRSSQSLRHSNGYNYLDWYLQKPGQSPQLLIYLASNRASGVPDRFSGSGSGTDFTLKISRVEAEDVGVYYCMQALQIPPTFGPGTKVDIKRTVAAPTVSIFPPSSEQLTSGGASVVCFLNNFYPKDINVKWKIDGSERQNGVLNSWTDQDSKDSTYSMSSTLTLTKDEYERHNSYTCEATHKTSTSPIVKSFNRNEC | 117
7 | GLP1ScrH/L (antibody, mouse IgG2a) heavy: HGEGTFTSDVSSYLEGQAAKEFIAWLVKGRGSGGGGSGGGGSGQVQLVQSGSELKKPGASVKVSCKASGYTFTNYGMNWVRQAPGQGLEWMGWINTRNGKSTYVDDFKGRFVFSLDTSVSTAYLQISSLKADDTAVYYCAREGNMDGYFPFTYWGQGTLVTVSSAKTTAPSVYPLAPVCGDTTGSSVTLGCLVKGYFPEPVTLTWNSGSLSSGVHTFPAVLQSDLYTLSSSVTVTSSTWPSQSITCNVAHPASSTKVDKKIEPRGPTIKPCPPCKCPAPNLAGAPSVFIFPPKIKDVLMISLSPIVTCVVVDVSEDDPDVQISWFVNNVEVHTAQTQTHREDYNSTLRVVSALPIQHQDWMSGKEFKCKVNNKDLPAPIERTISKPKGSVRAPQVYVLPPPEEEMTKKQVTLTCMVTDFMPEDIYVEWTNNGKTELNYKNTEPVLDSDGSYFMYSKLRVEKKNWVERNSYSCSVVHEGLHNHHTTKSFSRTPGK light: HGEGTFTSDVSSYLEGQAAKEFIAWLVKGRGSGGGGSGGGGSGDIVMTQSPSSLSASVGDRVTITCKASQNVGTNVAWYQQKPGKAPKALIYSASYRYSGVPDRFSGSGSGTDFTLTISSLQPEDFATYYCQQYNSYPLTFGGGTKVEIKRTVAAPTVSIFPPSSEQLTSGGASVVCFLNNFYPKDINVKWKIDGSERQNGVLNSWTDQDSKDSTYSMSSTLTLTKDEYERHNSYTCEATHKTSTSPIVKSFNRNEC | 475
